{"source": "IntAct's records for PubMed 18292755", "parents": {"B1": {"name": "Autoimmune regulator (Homo sapiens), O43918 (parent)", "chain": "MATDAALRRLLRLHRTEIAVAVDSAFPLLHALADHDVVPEDKFQETLHLKEKEGCPQAFHALLSWLLTQDSTAILDFWRVLFKDYNLERYGRLQPILDSFPKDVDLSQPRKGRKPPAVPKALVPPPRLPTKRKASEEARAAAPAALTPRGTASPGSQLKAKPPKKPESSAEQQRLPLGNGIQTMSASVQRAVAMSSGDVPGARGAVEGILIQQVFESGGSKKCIQVGGEFYTPSKFEDSGSGKNKARSSSGPKPLVRAKGAQGAAPGGGEARLGQQGSVPAPLALPSDPQLHQKNEDECAVCRDGGELICCDGCPRAFHLACLSPPLREIPSGTWRCSSCLQATVQEVQPRAEEPRPQEPPVETPLPPGLRSAGEEVRGPPGEPLAGMDTTLVYKHLPAPPSAAPLPGLDSSALHPLLCVGPEGQQNLAPGARCGVCGDGTDVLRCTHCAAAFHWRCHFPAGTSRPGTGLRCRSCSGDVTPAPVEGVLAPSPARLAPGPAKDDTASHEPALHRDDLESLLSEHTFDGILQWAIQSMARPAAPFPS"}}}
{"variants_of": "B1", "details": "with h31_human H3C1, P68431"}
{"variant": "D297A", "effect of a mutation on the interaction": "disrupting interaction"}
{"variants_of": "B1", "details": "with h31_human H3C1, P68431", "remark": "another data set of the same source"}
{"variant": "D297A", "effect of a mutation on the interaction": "decreasing interaction"}
{"variants_of": "B1", "details": "with h31_human H3C1, P68431", "remark": "another data set of the same source"}
{"variant": "C311Y", "effect of a mutation on the interaction": "disrupting interaction"}
{"variants_of": "B1", "details": "with h31_human H3C1, P68431", "remark": "another data set of the same source"}
{"variant": "D312A", "effect of a mutation on the interaction": "disrupting interaction"}
{"variants_of": "B1", "details": "with h31_human H3C1, P68431", "remark": "another data set of the same source"}
{"variant": "V301M", "effect of a mutation on the interaction": "decreasing interaction"}
